The source of these data is patent US20240067944A1 (published 2024).

For experiment [1], the target named is human plasma-derived FX (Haematologic Technologies Inc, USA) (human) (UniProt P00742). Briefly: cell-based or functional assay.
The target of experiment [2] is T1, human plasma-derived FX (Haematologic Technologies Inc, USA) (human, UniProt P00742 41-179; P00742 183-488). Kind of experiment: cell-based or functional assay.
The target in experiment [3] is T2, Benefix (Pfizer Inc, USA), FIX (human, UniProt P00740 47-461).
T2 construct: Bought product; also called FIX (Benefix®)
Briefly: SPR, FIX (Benefix) captured on immobilised anti-GLA-FIX antibody, steady state analysis, 25 C. How it is done:
Briefly, anti-GLA-FIX, prepared recombinantly as described above, was immobilised on a CM4 sensor chip or a Xantec HLC200M using standard amine coupling chemistry at pH 5. FIX (10 nM) was injected at a flow rate of 10 μL/min for 1 minute. Subsequently 1000, 100, 10, 1, 0.1 and 0 nM of VHH polypeptide compound were injected at a flow rate of 30 μL/min for 4 minutes to allow for binding to the FIX (Benefix®) followed by a flow of 5 minutes running buffer (10 mM HEPES, 150 mM NaCl, 5 mM CaCl₂), 0.05% (v/v) Surfactant P20, 1 mg/mL bovine serum albumin, pH 7.4) injection allowing for dissociation from FIX. The running buffer was also used for dilution of anti-FIX VHH polypeptide compounds. Regeneration of the chip was achieved using a regeneration buffer consisting of 50 mM EDTA in running buffer, 30 seconds contact time, and a 30 μL/min flow rate. The binding data were collected at 25° C. and were analysed according to a 1:1 model using BiaEvaluation 4.1 supplied by the manufacturer (Biacore AB, Uppsala).
(§1) Therefore, the reported KD values are determined based on steady state analysis.

In experiment [4] the target is T1, human plasma-derived FX (Haematologic …). Briefly: SPR, FX captured on immobilised anti-GLA-FX antibody, steady state analysis, 25 C. The protocol: Briefly, an anti-GLA-FX, prepared recombinantly as described above, was immobilised on a CM4 sensor chip or a Xantec HLC200M using standard amine coupling chemistry at pH 5. 10 nM FX (Haematologic Technologies, USA) was injected at a flow rate of 10 μL/min for 30 seconds. Subsequently 1000, 100, 10, 1, 0.1 and 0 nM of VHH polypeptide compound, according to Table 9, below were injected at a flow rate of 50 μL/min for 200 seconds to allow for binding to FX followed by a flow of 10 minutes with a running buffer (10 mM HEPES, 150 mM NaCl, 5 mM CaCl₂), 0.05% (v/v) Surfactant P20, 1 mg/mL bovine serum albumin, pH 7.4) injection allowing for dissociation from FX. The running buffer was also used for dilution of anti-FX VHH polypeptide compounds. Regeneration of the chip was achieved using a regeneration buffer consisting of 50 mM EDTA in running buffer, 30 seconds contact time, and a 30 μL/min flow rate. The binding data were collected at 25° C. and were analysed according to a 1:1 model using BiaEvaluation 4.1 supplied by the manufacturer (Biacore AB, Uppsala or Bruker Analyser).
as §1
In general terms: In SPR one partner is held on a chip, and binding of the other changes the refractive index at the surface.

T1 sequence (P00742 41-179, chain 1 of 2): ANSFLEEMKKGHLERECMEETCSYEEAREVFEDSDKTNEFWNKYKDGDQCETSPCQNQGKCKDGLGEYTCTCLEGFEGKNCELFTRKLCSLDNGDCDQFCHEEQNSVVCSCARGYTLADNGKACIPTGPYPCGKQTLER
T1 sequence (P00742 183-488, chain 2 of 2): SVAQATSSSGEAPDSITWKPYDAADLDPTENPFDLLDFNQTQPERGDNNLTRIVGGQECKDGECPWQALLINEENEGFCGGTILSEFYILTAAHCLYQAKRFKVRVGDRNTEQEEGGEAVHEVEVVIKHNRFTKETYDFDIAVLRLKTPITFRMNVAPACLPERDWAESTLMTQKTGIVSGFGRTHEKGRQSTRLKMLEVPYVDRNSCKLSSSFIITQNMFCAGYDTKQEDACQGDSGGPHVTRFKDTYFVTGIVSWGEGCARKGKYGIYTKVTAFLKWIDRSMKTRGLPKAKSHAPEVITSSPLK
T2 sequence (P00740 47-461 T194A limits assumed): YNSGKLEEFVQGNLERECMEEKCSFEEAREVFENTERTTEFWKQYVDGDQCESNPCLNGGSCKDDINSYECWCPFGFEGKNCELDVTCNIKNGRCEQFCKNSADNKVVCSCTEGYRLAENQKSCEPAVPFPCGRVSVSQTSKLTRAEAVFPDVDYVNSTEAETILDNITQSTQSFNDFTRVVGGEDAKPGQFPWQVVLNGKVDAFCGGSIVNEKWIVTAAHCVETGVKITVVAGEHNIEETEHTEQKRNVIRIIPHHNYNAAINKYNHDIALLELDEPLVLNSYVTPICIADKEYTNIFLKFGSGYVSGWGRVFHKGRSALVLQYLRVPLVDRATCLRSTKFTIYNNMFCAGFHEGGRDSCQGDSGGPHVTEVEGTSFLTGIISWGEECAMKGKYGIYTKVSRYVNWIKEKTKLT
human plasma-derived FX (Haematologic Technologies Inc, USA) (human), sequence (P00742 41-179, chain 1 of 2): as the sequence (P00742 41-179, chain 1 of 2) above
human plasma-derived FX (Haematologic Technologies Inc, USA) (human), sequence (P00742 183-488, chain 2 of 2): as the sequence (P00742 183-488, chain 2 of 2) above

In the case of “emicizumab sequence identical analogue (SIA) (bispecific antibody)”, in experiment [1], the KM (nM) of FX activation by 0.1 nM FIXa on phospholipid vesicles with 300 nM antibody stood at 53.5 nM and the kcat/KM (1/(min * nM)) of FX activation by 0.1 nM FIXa with 300 nM antibody was determined as 500000 M⁻¹ s⁻¹.

B1: Cmpd #6 (anti-FX/anti-FIX(a) VHH polypeptide derivative) (bispecific antibody)
chain: DVQLVESGGGVVQPGGSLQLSCAASGRTHSRYAMGWFRQAPGQEREFVAAISRRGGSTNYADSVKGRFTISRDNSKNTVYLQMDSLRPEDTALYYCAADDSSGDGYLDYWGQGTLVTVSSGGGGSGGGSEVQLVESGGGVVQPGGSLQLSCAASGRTFNIYTMSWFRQAPGQEREFVAGLRWTDSSTEYADSVKGRFTISRDNSKNTVYLQMDSLRPEDTALYYCAADRSFLFAQALGATKNYEYWGQGTLVTVSSGGGGCSCHHHHHH
modifications: C16 diacid protractor (P2) via linker LP1 on Cys5 and Cys7 in C-term extension (SEQ ID NO: 8)
notes: Single chain of two VHH: anti-FX (N-terminal) and anti-FIX(a) (C-terminal)
As for B1, in experiment [2], the “KM (nM) of FX activation by 0.1 nM FIXa on phospholipid vesicles with 5 nM compound” value (from here on “KM (nM) of FX activation … with 5 nM compound”) was determined as 5.9 nM. The “kcat/KM (1/(min * nM)) of FX activation by 0.1 nM FIXa with 5 nM compound” value (from here on “kcat/KM (1/(min * nM)) … with 5 nM compound”) in experiment [2] is 5.5e+06 M⁻¹ s⁻¹. Also, the Kd is 4.8 nM in experiment [3] and 232 nM in experiment [4].

B2: Cmpd #13 (anti-FX/anti-FIX(a) VHH polypeptide derivative) (bispecific antibody)
chain: DVQLVESGGGVVQPGGSLQLSCAASGGTKRRLAMGWFRQAPGQEREWVAAISRRGGSTNYADSVKGRFTISRDNSKNTVYLDMDDLRPEDTALYYCAADDSVGDGYLDYWGQGTLVTVSSGQAPGQEVQLVESGGGVVQPGGSLQLSCAASGRTFNIYTMSWFRQDPGQEREFVAGLRWTDSSTEYADSVKGRFTISRDNSKNTVYLQMDSLRPEDTALYYCAADRSFLFAQALGATKNYEYWGQGTLVTVSSGQACPC
modifications: C16 diacid protractor (P2) via linker LP1 on Cys4 and Cys6 in C-term extension (SEQ ID NO: 9)
notes: Single chain of two VHH: anti-FX (N-terminal) and anti-FIX(a) (C-terminal); also called VHH1.13-L1-2-VHH2.13-E
For B2, in experiment [2], the “KM (nM) of FX activation … with 5 nM compound” value is 6.2 nM. For the same molecule, the “kcat/KM (1/(min * nM)) … with 5 nM compound” value in experiment [2] was 3e+06 M⁻¹ s⁻¹. The Kd in experiment [3] worked out at 2 nM; in experiment [4], 300 nM.

B3: Cmpd #15 (anti-FX/anti-FIX(a) VHH polypeptide derivative) (bispecific antibody)
chain: DVQLVESGGGVVQPGGSLQLSCAASGGTKRRLAMGWFRQAPGQEREWVAAISRRGGSTNYADSVKGRFTISRDNSKNTVYLQMDSLRPEDTALYYCAADDSVGDGYLDYWGQGTLVTVSSGQAPGQEVQLVESGGGVVQPGGSLQLSCAASGRTFNIYTMSWFRQAPGQEREFVAGLRWTDSSTEYADSVKGRFTISRDNSKNTVYLQMDSLRPEDTALYYCAADRSFLFAQALGATKNYEYWGQGTLVTVSSGQACPC
modifications: C16 diacid protractor (P2) via linker LP1 on Cys4 and Cys6 in C-term extension (SEQ ID NO:9)
notes: Single chain of two VHH: anti-FX (N-terminal) and anti-FIX(a) (C-terminal); also called VHH1.15-L1-2-VHH2.15-E
Regarding B3, in experiment [2], the “KM (nM) of FX activation … with 5 nM compound” value came out at 6.9 nM and the “kcat/KM (1/(min * nM)) … with 5 nM compound” value is 4.17e+06 M⁻¹ s⁻¹. The molecule further registered a Kd in experiment [3] of 3 nM. Further, in experiment [4], the Kd turned out to be 350 nM.

By Kd is commonly meant a measure of binding affinity in units of concentration.
